Source: patent US20120207760A1

B1: TCN-534 (5249_B02) (antibody, V domains shown)
VH: QVQLVQSGAEVKKPGSSVKVSCRESGGTFNGYTITWVRQAPGQGLEWMGGIIPMMGTVNYAQKLQGRVTITTDYFTKTAYMDLNNLRSEDTAMYYCVKIRYTGQQLLWGQGTLVTVSS
VL: DIQMTQSPSTLSASIGDRVTITCRASQSIASWLAWYQQKPGKAPKLLIYEAVNLESGVPSRFSGSGSGTDFTLTISSLQPDDFATYFCQHYGTISQTFGGGTKVEIK
B2: TCN-528 (5087_P17) (antibody, V domains shown)
VH: QVQLVQSGSEVKKPGASVKVSCKASGYTFTNYDINWIRQAPGQGLEWMGWINPNSGTTGSAQRFQGRVTITVDTSITTVYMELSSLRSDDTAIYYCARGRELLRLQHFLTDSQSERRDCFDPWGQGTLVTVSS
VL: DIQMTQSPSSLSASVGDRVTITCRANQDIGIYLNWYQQNPGKVPKLLLHGASSLQGGVPSRFSASGSGTDFTLTIHSLQPEDLATYYCQQSRRLPYTFGQGTRVELK
B3: TCN-563 (5237_B21) (antibody, V domains shown)
VH: QVQLAQSGAEVKRPGSSVKVSCTASGGIFRKNAISWVRQAPGQGLEWMGGIIAVFNTANYAQKFQGRVKITADESGNTAYMELSSLRSDDTAVYYCASHPKYFYGSGSYPDFWGQGTLVTVSS
VL: QSALTQPRSVSGSPGQSVTISCTGSSSDVGASNSVSWYQQHPGKAPKLVIYDVTERPSGVPHRFSGSKSGNTASLTVSGLQPEDEADYFCCAYGGKYLVVFGGGTKVTVL
B4: TCN-527 (5086_C06) (antibody, V domains shown)
VH: QVQLQESGPGLVKPSETLSLNCAVSGGSISNYYWSWIRQPPGKGLEWIGYISYNGRPKYNPSLTSRVTISVDTSKDQFSLELRSVTAADTALYYCARETRFGELLSPYDAFEIWGQGTMVTVSS
VL: DIQMTQSPSSLSASVGDRVTMTCRASQNIRSYLNWYQQRPGTAPKLLIYAASTLHSGVPSRFSGGGSGTDFTLTINNLQPEDFASYYCQQSYDNPQTFGQGTKVEIK
B5: TCN-530 (5248_H10a) (antibody, V domains shown)
VH: QVQLVQSGAEVRKPGSSVKVSCKASGGPFMSYAIGWVRQAPGQGLEWMGGINPVFGRPHYAQKFQGRVTIATDDSTKTSYMELSSLTSEDTGMYYCASRYSRSSPGTFESWGQGTLVTVSS
VL: EIVMTQFPATLSVSPGERVTLSCRASQSVSNNLAWYQQKPGQPPRLLIYDASTRATGVPAKFSGTGSGTEFTLSISSLQSEDFAVYYCQQYHNWPPSYSFGLGTKLEIK

Columns and labels:
Settings in all cases: remark: other sources report otherwise
[1] = biological target: T1, recombinant homotrimeric HA, A/California/4/09 H1N1 (Influenza A virus A/California/4/09 (H1N1)); experiment: trimeric HA microarray, transfection set 4
[2] = biological target: T2, recombinant homotrimeric HA, A/South Carolina/1/18 H1N1 (Influenza A virus A/South Carolina/1/18 (H1N1)); experiment: trimeric HA microarray, transfection set 4
[3] = biological target: T3, recombinant homotrimeric HA, A/Solomon Islands/3/06 H1N1 (Influenza A virus A/Solomon Islands/3/06 (H1N1)); experiment: trimeric HA microarray, transfection set 4
[4] = biological target: T4, recombinant homotrimeric HA, A/Vietnam/1203/04 H5N1 (Influenza A virus A/Vietnam/1203/04 (H5N1)); experiment: trimeric HA microarray, transfection set 4
[5] = biological target: T5, recombinant homotrimeric HA, A/Indonesia/5/05 H5N1 (Influenza A virus A/Indonesia/5/05 (H5N1)); experiment: trimeric HA microarray, transfection set 4
[6] = biological target: T6, recombinant homotrimeric HA, A/Japan/305/57 H2N2 (Influenza A virus A/Japan/305/57 (H2N2)); experiment: trimeric HA microarray, transfection set 4
[7] = biological target: T7, recombinant homotrimeric HA, A/Wisconsin/67/05 H3N2 (Influenza A virus A/Wisconsin/67/05 (H3N2)); experiment: trimeric HA microarray, transfection set 4
[8] = biological target: T1, recombinant homotrimeric HA, …; experiment: trimeric HA microarray, transfection set 2
[9] = biological target: T2, recombinant homotrimeric HA, A/South …; experiment: trimeric HA microarray, transfection set 2
[10] = biological target: recombinant homotrimeric HA, A/Anhui/1/05 H5N1 (Influenza A virus A/Anhui/1/05 (H5N1)); experiment: trimeric HA microarray, transfection set 2
[11] = biological target: T8, recombinant homotrimeric HA, A/northern shoveler/California/HKWF115/07 (Influenza A virus A/northern shoveler/California/HKWF115/2007 (H6N1)); experiment: trimeric HA microarray, transfection set 2
[12] = biological target: T9, recombinant homotrimeric HA, A/Hong Kong/1073/99 H9N2 (Influenza A virus A/Hong Kong/1073/99 (H9N2)); experiment: trimeric HA microarray, transfection set 2
[13] = biological target: T3, recombinant homotrimeric HA, A/Solomon …; experiment: trimeric HA microarray, transfection set 2
[14] = biological target: recombinant homotrimeric HA, A/duck/Yangzhou/02/05 H8N4 (Influenza A virus A/duck/Yangzhou/02/2005 (H8N4)); experiment: trimeric HA microarray, transfection set 2
[15] = biological target: recombinant homotrimeric HA, A/Netherlands/219/03 H7N7 (Influenza A virus A/Netherlands/219/03 (H7N7)); experiment: trimeric HA microarray, transfection set 2
[16] = biological target: T4, recombinant homotrimeric HA, …; experiment: trimeric HA microarray, transfection set 2
[17] = biological target: T5, recombinant homotrimeric HA, …; experiment: trimeric HA microarray, transfection set 2
[18] = biological target: T10, recombinant homotrimeric HA, A/swine/Ontario/01911-2/99 H4N6 (Influenza A virus A/swine/Ontario/01911-2/99 (H4N6)); experiment: trimeric HA microarray, transfection set 2
[19] = biological target: T11, recombinant homotrimeric HA, A/common magpie/Hong Kong/5052/07 H5N1 (Influenza A virus A/common magpie/Hong Kong/5052/07 (H5N1)); experiment: trimeric HA microarray, transfection set 2
[20] = biological target: T6, recombinant homotrimeric HA, …; experiment: trimeric HA microarray, transfection set 2
[21] = biological target: T7, recombinant homotrimeric HA, …; experiment: trimeric HA microarray, transfection set 2
[22] = biological target: T12, recombinant homotrimeric HA, A/Hong Kong/2108/03 H9N2 (Influenza A virus A/Hong Kong/2108/03 (H9N2)); experiment: trimeric HA microarray, transfection set 2
[23] = biological target: T13, recombinant homotrimeric HA, A/Egypt/3300-NAMRU3/08 H5N1 (Influenza A virus A/Egypt/3300-NAMRU3/08 (H5N1)); experiment: trimeric HA microarray, transfection set 2
[24] = biological target: T14, recombinant homotrimeric HA, A/chicken/Vietnam/NCVD-016/08 H5N1 (Influenza A virus A/chicken/Vietnam/NCVD-016/08 (H5N1)); experiment: trimeric HA microarray, transfection set 2
[25] = biological target: T1, recombinant homotrimeric HA, …; experiment: trimeric HA microarray, transfection set 3
[26] = biological target: T2, recombinant homotrimeric HA, A/South …; experiment: trimeric HA microarray, transfection set 3
[27] = biological target: T8, recombinant homotrimeric HA, A/northern …; experiment: trimeric HA microarray, transfection set 3
[28] = biological target: T9, recombinant homotrimeric HA, A/Hong …; experiment: trimeric HA microarray, transfection set 3
[29] = biological target: T3, recombinant homotrimeric HA, A/Solomon …; experiment: trimeric HA microarray, transfection set 3
[30] = biological target: T4, recombinant homotrimeric HA, …; experiment: trimeric HA microarray, transfection set 3
[31] = biological target: T5, recombinant homotrimeric HA, …; experiment: trimeric HA microarray, transfection set 3
[32] = biological target: T10, recombinant homotrimeric HA, …; experiment: trimeric HA microarray, transfection set 3
[33] = biological target: T11, recombinant homotrimeric HA, A/common …; experiment: trimeric HA microarray, transfection set 3
[34] = biological target: T6, recombinant homotrimeric HA, …; experiment: trimeric HA microarray, transfection set 3
[35] = biological target: T7, recombinant homotrimeric HA, …; experiment: trimeric HA microarray, transfection set 3
[36] = biological target: T12, recombinant homotrimeric HA, A/Hong …; experiment: trimeric HA microarray, transfection set 3
[37] = biological target: T13, recombinant homotrimeric HA, …; experiment: trimeric HA microarray, transfection set 3
[38] = biological target: T14, recombinant homotrimeric HA, …; experiment: trimeric HA microarray, transfection set 3

Row | Binder | Trimeric HA Binding RLU [8] | Trimeric HA Binding RLU [9] | Trimeric HA Binding RLU [10] | Trimeric HA Binding RLU [11] | Trimeric HA Binding RLU [12] | Trimeric HA Binding RLU [13] | Trimeric HA Binding RLU [14] | Trimeric HA Binding RLU [15] | Trimeric HA Binding RLU [16] | Trimeric HA Binding RLU [17] | Trimeric HA Binding RLU [18] | Trimeric HA Binding RLU [19] | Trimeric HA Binding RLU [20] | Trimeric HA Binding RLU [21] | Trimeric HA Binding RLU [22] | Trimeric HA Binding RLU [23] | Trimeric HA Binding RLU [24] | also measured
1 | B1 |  |  |  |  |  |  |  |  |  |  |  |  |  |  |  |  |  | Trimeric HA Binding RLU [1]: 27000 RLU; Trimeric HA Binding RLU [2]: 11800 RLU; Trimeric HA Binding RLU [3]: 60 RLU; Trimeric HA Binding RLU [4]: 23700 RLU; Trimeric HA Binding RLU [5]: 948 RLU; Trimeric HA Binding RLU [6]: 14700 RLU; Trimeric HA Binding RLU [7]: 897 RLU
2 | B2 | 44600 RLU | 25200 RLU | 21200 RLU | 28400 RLU | 322 RLU | 26900 RLU | 19800 RLU | 47200 RLU | 23300 RLU | 39700 RLU | 49200 RLU | 45300 RLU | 23100 RLU | 46000 RLU | 33600 RLU | 36800 RLU | 22600 RLU | 
3 | B3 | 21200 RLU | 17800 RLU | 1570 RLU | 21900 RLU | 49200 RLU | 26500 RLU | 6280 RLU | 5420 RLU | 31500 RLU | 47300 RLU |  | 52800 RLU | 11200 RLU | 23700 RLU | 364 RLU | 23900 RLU | 36300 RLU | 
4 | B4 | 21500 RLU | 48100 RLU | 15200 RLU | 19300 RLU | 557 RLU | 19700 RLU | 17900 RLU | 49100 RLU | 20600 RLU | 23400 RLU | 30100 RLU | 43800 RLU | 20800 RLU | 35800 RLU | 25500 RLU | 23600 RLU | 20100 RLU | 
5 | B5 |  |  |  |  |  |  |  |  |  |  |  |  |  |  |  |  |  | Trimeric HA Binding RLU [25]: 21200 RLU; Trimeric HA Binding RLU [26]: 17200 RLU; Trimeric HA Binding RLU [27]: 23500 RLU; Trimeric HA Binding RLU [28]: 10200 RLU; Trimeric HA Binding RLU [29]: 13800 RLU; Trimeric HA Binding RLU [30]: 25200 RLU; Trimeric HA Binding RLU [31]: 25500 RLU; Trimeric HA Binding RLU [32]: 123 RLU; Trimeric HA Binding RLU [33]: 5580 RLU; Trimeric HA Binding RLU [34]: 5170 RLU; Trimeric HA Binding RLU [35]: 3050 RLU; Trimeric HA Binding RLU [36]: 44 RLU; Trimeric HA Binding RLU [37]: 25500 RLU; Trimeric HA Binding RLU [38]: 18000 RLU
